From patent US20210171593A1

Legend:
[1] = target: Biotin-Fc-CD47 (Homo sapiens (Human)) (UniProt Q08722); test: competition ELISA: blocks Biotin-Fc-CD47 binding to coated SIRPα-His
[2] = target: CD47 on the surface of tumor cells (Raji cells, Jurkat cells, A549 cells) (human) (UniProt Q08722); test: flow cytometry on Raji cells
[3] = target: CD47 on the surface of tumor cells (Raji cells, Jurkat cells, A549 cells) (human) (UniProt Q08722); test: flow cytometry on A549 cells
[4] = target: CD47 on the surface of tumor cells (Raji cells, Jurkat cells, A549 cells) (human) (UniProt Q08722); test: flow cytometry on Jurkat cells
[5] = target: CD47-FITC (Homo sapiens (Human)) (UniProt Q08722); test: flow cytometry of the wild domain control with the same gate as the library panel above it (CD47-FITC in the text, x axis printed APC-A), second panel, under the 4.9% panel
[6] = target: CD47-FITC (Homo sapiens (Human)) (UniProt Q08722); test: flow cytometry of the wild domain control with the same gate as the library panel above it (CD47-FITC in the text, x axis printed APC-A), third panel, under the 12.5% panel
[7] = target: CD47-FITC (Homo sapiens (Human)) (UniProt Q08722); test: flow cytometry of the wild domain control with the same gate as the library panel above it (CD47-FITC in the text, x axis printed APC-A), first panel, under the 3% panel

Row | Molecule | IC50 [1] [µg/mL] | EC50 [2] [µg/mL] | maximum fluorescence intensity [2] | EC50 [3] [µg/mL] | maximum fluorescence intensity [3] | EC50 [4] [µg/mL] | maximum fluorescence intensity [4] | percent of cells in gate P2 [5] [%] | percent of cells in gate P2 [6] [%] | percent of cells in gate P2 [7] [%]
1 | TTI-621 (Fc fusion) | 494 | 0.0404 | 600 | 1 | 60 | 0.0539 | 3000 |  |  | 
2 | Wild domain control (receptor, part only; not given: display vector transmembrane region, not shown: another chain or arm of the molecule; large carriers; small tags and cut ends, displayed on the CHO cell surface through the pTM transmembrane region (no letters given); the pTM signal peptide is left off as cleaved) ELQVIQPDKSVLVAAGETATLRCTATSLIPVGPIQWFRGAGPGRELIYNQKEGHFPRVTTVSDLTKRNNMDFSIRIGNITPADAGTYYCVKFRKGSPDDVEFKSGAGTELSVRAKPS |  |  |  |  |  |  |  | 0 | 0 | 1.3
